Assay results from paper PMC3650007, “Human Rotavirus VP6-Specific Antibodies Mediate Intracellular Neutralization by Binding to a Quaternary Structure in the Transcriptional Pore” (PLoS ONE, 2013).

Target: T1, VP6 fragment (VP6f), residues 147-339 (Rotavirus A, strain of the VP6 DNA …)
T1 construct: also called VP6 head domain construct
T1 chain: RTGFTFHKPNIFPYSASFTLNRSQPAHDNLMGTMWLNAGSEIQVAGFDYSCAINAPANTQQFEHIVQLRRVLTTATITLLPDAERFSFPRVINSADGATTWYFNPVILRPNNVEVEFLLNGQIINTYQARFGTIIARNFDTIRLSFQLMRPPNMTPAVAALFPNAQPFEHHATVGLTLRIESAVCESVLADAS
Experiment: HDX-MS
Conditions: both partners purified

B1: RV6-26 Fab (Fab, V domains shown)
VH: EFQLVESGAEVKKPGASVKVSCKASGYSFTSYYVHWVREAPGEGLEWMGMINPSDGSTYYAQRFQPRVTMTRDTSTTTVFMEMSGLRSEDTAVYYCARGVVGATNEIDFWGQGTTVTVSS
VL: DIRLTQSPSSLSASVGDRVTITCRASQSISNYLNWYQKKPGQAPKLLIYAATSLQSGVPSRFSGSGSGTDFTLTISSVQPEDFATYYCQKTLRTWTFGQGTKVEIK
binding result: binds
